Source: US20110301093

B1: DAPk's catalytic domain (DK1) (protein)
chain: MTVFRQENVDDYYDTGEELGSGQFAVVKKCREKSTGLQYAAKFIKKRRTKSSRRGVSREDIEREVSILKEIQHPNVITLHEVYENKTDVILILELVAGGELFDFLAEKESLTEEEATEFLKQILNGVYYLHSLQIAHFDLKPENIMLLDRNVPKPRIKIIDFGLAHKIDFGNEFKNIFGTPEFVAPEIVNYEPLGLEADMWSIGVITYILLSGASPFLGDTKQETLANVSAVNYEFEDEYFSNTSALAKDFIRRLLVKDPKKRMTIQDSLQHPWIKPKDTQQALS
B2: Flag-tagged DAPk (protein)
chain: MTVFRQENVDDYYDTGEELGSGQFAVVKKCREKSTGLQYAAKFIKKRRTKSSRRGVSREDIEREVSILKEIQHPNVITLHEVYENKTDVILILELVAGGELFDFLAEKESLTEEEATEFLKQILNGVYYLHSLQIAHFDLKPENIMLLDRNVPKPRIKIIDFGLAHKIDFGNEFKNIFGTPEFVAPEIVNYEPLGLEADMWSIGVITYILLSGASPFLGDTKQETLANVSAVNYEFEDEYFSNTSALAKDFIRRLLVKDPKKRMTIQDSLQHPWIKPKDTQQALSRKASAVNMEKFKKFAARKKWKQSVRLISLCQRLSRSFLSRSNMSVARSDDTLDEEDSFVMKAIIHAINDDNVPGLQHLLGSLSNYDVNQPNKHGTPPLLIAAGCGNIQILQLLIKRGSRIDVQDKGGSNAVYWAARHGHVDTLKFLSENKCPLDVKDKSGEMALHVAARYGHADVAQLLCSFGSNPNIQDKEEETPLHCAAWHGYYSVAKALCEAGCNVNIKNREGETPLLTASARGYHDIVECLAEHGADLNACDKDGHIALHLAVRRCQMEVIKTLLSQGCFVDYQDRHGNTPLHVACKDGNMPIVVALCEANCNLDISNKYGRTPLHLAANNGILDVVRYLCLMGASVEALTTDGKTAEDLARSEQHEHVAGLLARLRKDTHRGLFIQQLRPTQNLQPRIKLKLFGHSGSGKTTLVESLKCGLLRSFFRRRRPRLSSTNSSRFPPSPLASKPTVSVSINNLYPGCENVSVRSRSMMFEPGLTKGMLEVFVAPTHHPHCSADDQSTKAIDIQNAYLNGVGDFSVWEFSGNPVYFCCYDYFAANDPTSIHVVVFSLEEPYEIQLNQVIFWLSFLKSLVPVEEPIAFGGKLKNPLQVVLVATHADIMNVPRPAGGEFGYDKDTSLLKEIRNRFGNDLHISNKLFVLDAGASGSKDMKVLRNHLQEIRSQIVSVCPPMTHLCEKIISTLPSWRKLNGPNQLMSLQQFVYDVQDQLNPLASEEDLRRIAQQLHSTGEINIMQSETVQDVLLLDPRWLCTNVLGKLLSVETPRALHHYRGRYTVEDIQRLVPDSDVEELLQILDAMDICARDLSSGTMVDVPALIKTDNLHRSWADEEDEVMVYGGVRIVPVEHLTPFPCGIFHKVQVNLCRWIHQQSTEGDADIRLWVNGCKLANRGAELLVLLVNHGQGIEVQVRGLETEKIKCCLLLDSVCSTIENVMATTLPGLLTVKHYLSPQQLREHHEPVMIYQPRDFFRAQTLKETSLTNTMGGYKESFSSIMCFGCHDVYSQASLGMDIHASDLNLLTRRKLSRLLDPPDPLGKDWCLLAMNLGLPDLVAKYNTSNGAPKDFLPSPLHALLREWTTYPESTVGTLMSKLRELGRRDAADFLLKASSVFKINLDGNGQEAYASSCNSGTSYNSISSVVSR

Experiments:
[1] = target: T1, mutant BH3 peptide in which Thr119 was substituted to alanine (T119A)
T1 chain: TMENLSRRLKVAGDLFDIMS

[2] = target: T2, peptide corresponding to Beclin's BH3 domain (aa 108-127)
T2 chain: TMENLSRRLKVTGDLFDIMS

GST-Beclin-1, sequence (chain, as listed by the source): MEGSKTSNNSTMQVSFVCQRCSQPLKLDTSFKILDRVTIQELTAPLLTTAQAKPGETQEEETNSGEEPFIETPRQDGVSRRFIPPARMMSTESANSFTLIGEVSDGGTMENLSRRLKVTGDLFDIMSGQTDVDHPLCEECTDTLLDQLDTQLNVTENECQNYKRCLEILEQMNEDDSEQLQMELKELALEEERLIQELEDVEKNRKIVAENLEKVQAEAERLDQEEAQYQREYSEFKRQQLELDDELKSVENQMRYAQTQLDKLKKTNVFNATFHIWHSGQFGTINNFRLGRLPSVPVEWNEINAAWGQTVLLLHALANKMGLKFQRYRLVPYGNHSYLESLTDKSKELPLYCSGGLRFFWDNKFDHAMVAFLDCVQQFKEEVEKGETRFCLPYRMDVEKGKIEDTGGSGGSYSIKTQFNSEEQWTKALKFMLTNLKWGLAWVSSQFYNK
Flag-tagged Beclin-1, sequence (chain, as listed by the source): as above

Protein | peptide phosphorylation, filter assay [1] | peptide phosphorylation, filter assay (total counts against substrate concentration) [2] | in vitro kinase assay, phosphorylation ([γ-33P]ATP, autoradiogram) (Flag-tagged Beclin-1) | in vitro kinase assay, phosphorylation ([γ-33P]ATP, autoradiogram) (GST-Beclin-1)
B1 | Changing Thr119 to alanine strongly inhibited the extent of peptide phosphorylation | DAPk phosphorylates Beclin's BH3 peptide in a dose-dependent manner |  | 
B2 |  |  | The phosphorylation by Flag-tagged (60 ng) DAPk was also observed when Flag-tagged Beclin-1 (250 ng), immunoprecipitated from HEK293T cells, was used as a substrate | GST-Beclin-1, but not GST alone, was phosphorylated by DAPk
